The values that follow come from US11479791B2, “Tools and methods for expression of membrane proteins” (VIB VZW, priority 2012, dated 2022).

Assay [1] concerns the target T1, human CXCR4 receptor (hCXCR4Rho1D4) (Homo sapiens, UniProt P61073).
T1 construct: expressed in transfected cells; host or cells: Pichia pastoris GS115
In words: hCXCR4-Nb co-expression in P. pastoris GS115; anti-Rho1D4 immunoblot of membrane protein, quantified by Odyssey software. Type of assay: cell-based. As to conditions: for change of hCXCR4 receptor expression upon Nb co-expression (in words): immunoblot, versus GS115hCXCR4 clone without Nb co-expression. The method, then:
An hCXCR4 expressing Pichia clone was transformed with the four linearized Nanobody expressing vectors as described before. Twenty-four positive clones (six per Nb) were analyzed for protein expression. Growth conditions and membrane protein sample preparations were done as previously described. Equal amounts of total membrane protein (determined by a BCA assay) of induced P. pastoris GS115 clones, expressing only the human CXCR4 receptor, or in combination with one of the anti-hCXCR4 Nanobodies, were run on a 12% SDS-PAGE gel and blotted on a nitrocellulose membrane. The blot was developed with a primary mouse anti-Rho1D4 monoclonal antibody and a secondary Dylight (800 nm) goat anti-mouse IgG on an LI-COR odyssey system. […] The quantification was performed by the Odyssey software by measuring relative fluorescent signals (Table 3).
An hCXCR4 expressing Pichia clone was transformed with the linearized Nanobody expressing vector as described before. Three positive clones were analyzed for protein expression. Growth conditions and membrane protein sample preparations were done as previously described. Equal amounts of total membrane protein (determined by a BCA assay) of induced P. pastoris GS115 clones, expressing only the human CXCR4 receptor, or in combination with a anti-hCXCR4 Nanobody (NbCA4142), or in combination with the negative control Nanobody (NbCA4910), were run on a 12% SDS-PAGE gel and blotted on a nitrocellulose membrane. The blot was developed with a primary mouse anti-Rho1D4 monoclonal antibody and a secondary Dylight (800 nm) goat anti-mouse IgG on an LI-COR odyssey system. For the hCXCR4-specific Nb co-expressing clone we detect more of the anti-Rho1D4 immunoreactive membrane protein band compared to the GS115hCXCR4 clone without Nb co-expression. […] Exact quantification has been calculated by the Odyssey software by measuring relative fluorescent signals (Table 4). It can, thus, be concluded that the increase in receptor expression can be attributed to the Nanobody-specific interaction with the receptor.
Stable positive clones were typically grown in 2 ml (24-well format) or 12.5 ml (shake-flasks) BMGY medium for 48 hours (250 rpm; 28° C.). The cells were harvested by centrifugation and resuspended in the same amount of BMMY medium (1% methanol; 0.5% of methanol was added after 12 hours to maintain induction). After 24 hours the cells were harvested for membrane protein preparations (analysis of hCXCR4 expression and intracellular Nb retention) and the supernatant was used for analysis of extracellular protein expression on SDS-PAGE (Nanobodies).
The cell pellet corresponding to 1 ml of saturated yeast culture (OD600 60-80) was suspended in 1 ml of PBS+Protease inhibitor (Roche). Together with 200 μl of acid washed glass beads, the samples were vortexed heavily at 4° C. for 2×5 minutes. Glass beads, cell debris and intact cells were removed by centrifugation at 2000 rpm (5 min; 4° C.). The supernatant was kept as such or was centrifuged for 45 minutes at 13,000 rpm in a desktop centrifuge at 4° C. The supernatant, cytosolic fraction was discarded and the pellet fraction was re-dissolved in the same amount of fresh PBS+PI by sonication until a homogenous sample was obtained.
Total membrane protein concentration was determined by the BCA protein assay kit (Pierce, Thermo Scientific).
Protein samples were analyzed by SDS-poly-acrylamide gel electrophoresis, according to the Laemmli (Laemmli et al., 1970, Nature, 227:680) or the Tricine method (Schägger et al., 2006, Nat. Protoc. 1:16-22). Before loading on gel, the samples were mixed with 5× Laemmli (60 mM Tris-HCl pH 6.8; 2% SDS, 10% glycerol, 5% β-ME; 0.01% bromophenol blue) and heated for 10 minutes at 95° C. (only the ECM samples, not the membrane protein preparations). Prestained protein markers in the range of 10-250 kDa, Precision Plus protein standards (Bio-Rad), were used as molecular standards. […]

For a further assay, the target named is T2, β2-adrenergic receptor (Mesocricetus auratus, UniProt P04274).
T2 construct: expressed in transfected cells
In words: Purification of β2AR-Nanobody complex from HEK293S cells by Ni2+ affinity chromatography. The assay is classed as binding. As to conditions: upon the addition of the antagonist alprenolol hydrochloride; FIG. 10. The source says:
The same technique as in Example 4 can be used using a Nanobody that binds an intracellular epitope of the membrane protein. Nanobody CA2780 (amino acid sequence: SEQ ID NO:5; Nucleotide sequence: SEQ ID NO:23) is an example of a Nanobody that binds an intracellular epitope of the β2-adrenergic receptor and that stabilizes the receptor in its active conformation (Rasmussen et al., 2011, Nature 469: 175). We transformed a HEK293 cell line that has a stable inducible β2AR expression with the pCAGGSNbCA2780-plasmid (see Material and Methods section) for transient expression. This Nanobody is not fused to a secretion signal and, therefore, resides in the cytosol upon expression, to allow interaction with the intracellular side of the membrane protein. Nanobody CA2780 has a hexaHis-tag and can, therefore, be purified using Ni^2+ affinity chromatography. […] In this way we strongly enrich for the receptor fraction that is in a well-folded state, because the Nanobody can only bind the receptor when it is in its native fold. This step strongly increases homogeneity in a membrane protein sample going to f.e. crystallization trials. If necessary, a subsequent purification using anti-Rho1D4 affinity chromatography can further enrich the sample for the receptor. […]

The target of the next assay is T3, hCXCR4 receptor (Homo sapiens, UniProt P61073).
T3 construct: made in house; host or cells: Pichia pastoris GS115 co-expressing clone
In words: Purification of hCXCR4-Nanobody complex from co-expressing P. pastoris clone by Ni2+ affinity chromatography. Type of assay: binding. As to conditions: DDM-solubilized membrane protein of co-expressing clone; FIG. 9. The source says:
In this way we only purify the receptor fraction that is in a well-folded state, because the Nanobody can only bind the receptor when it is in its native fold. This step strongly increases homogeneity in a membrane protein sample which is useful, for example, for crystallization. […] In case an even more pure sample is required, an extra step of affinity chromatography can be performed using an anti-Rho1D4 affinity matrix, which targets the hCXCR4 part of the complex.
The cell pellet corresponding to 1 L of saturated yeast culture (OD600 60-80) was resuspended in a 1:1 (w/v) ratio of buffer A (1×PBS+Protease inhibitors). Together with 190 g of glass beads, the suspension was brought in the precooled DYNO®-MILL mixing chamber and cells were crushed for 5 minutes. The lysate was centrifuged for 10 minutes at 2,000 rpm (Sorvall F10S-6X500Y rotor) at 4° C. to remove cell debris and intact cells. The supernatant was centrifuged for an hour at 13,000 rpm (Sorvall F10S-6X500Y rotor) at 4° C. to pellet the membrane proteins. The pellet was resuspended in 10 ml buffer A with 1% DDM (n-Dodecyl β-D-maltoside) and put on a rotor for three hours at 4° C. to allow membrane protein solubilization. After solubilization, the solution is centrifuged for one hour at 13,000 rpm (Sorvall SS-34 rotor) at 4° C. to remove unsolubilized membrane proteins. […]

Setting [2] is: Table 3, anti-Rho1D4 immunoreactive hCXCR4 band, average of two independent experiments.
The mark [3] stands for this setting: Table 3, corrected for GS115 negative control.
The mark [4] stands for this setting: Table 4, co-expressing clone cl1.
[5] abbreviates: Table 4, co-expressing clone cl2.
Setting [6] is: Table 4, co-expressing clone cl3.

T1 sequence (P61073 with tags, fused parts or gaps isoform P61073-2): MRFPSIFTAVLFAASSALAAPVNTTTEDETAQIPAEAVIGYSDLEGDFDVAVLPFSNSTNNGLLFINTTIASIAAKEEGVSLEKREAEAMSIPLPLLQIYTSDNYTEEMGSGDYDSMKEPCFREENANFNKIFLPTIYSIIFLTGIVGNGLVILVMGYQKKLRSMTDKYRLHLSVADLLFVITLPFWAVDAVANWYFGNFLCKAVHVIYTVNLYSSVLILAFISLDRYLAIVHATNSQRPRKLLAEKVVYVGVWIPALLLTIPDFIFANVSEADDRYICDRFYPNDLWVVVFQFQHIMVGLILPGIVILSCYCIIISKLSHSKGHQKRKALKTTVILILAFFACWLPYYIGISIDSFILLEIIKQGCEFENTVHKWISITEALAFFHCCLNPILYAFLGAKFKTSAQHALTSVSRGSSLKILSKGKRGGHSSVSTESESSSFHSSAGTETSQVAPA
T2 sequence (P04274 whole entry): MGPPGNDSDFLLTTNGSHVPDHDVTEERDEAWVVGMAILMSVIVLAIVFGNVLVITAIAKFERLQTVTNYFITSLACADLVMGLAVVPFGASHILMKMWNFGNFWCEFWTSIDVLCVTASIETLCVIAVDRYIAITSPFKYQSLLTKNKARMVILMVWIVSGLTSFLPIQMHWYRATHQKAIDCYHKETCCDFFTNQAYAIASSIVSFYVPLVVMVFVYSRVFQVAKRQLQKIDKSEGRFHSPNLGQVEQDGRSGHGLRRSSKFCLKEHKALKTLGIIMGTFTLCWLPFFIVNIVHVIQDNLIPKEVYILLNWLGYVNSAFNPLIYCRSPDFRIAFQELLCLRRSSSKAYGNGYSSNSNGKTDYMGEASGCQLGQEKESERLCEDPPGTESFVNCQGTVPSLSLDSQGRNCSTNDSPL
T3 sequence (P61073 with tags, fused parts or gaps isoform P61073-2): as the sequence (P61073 with tags, fused parts or gaps isoform P61073-2) above

B1: NbCA4140: Nanobody directed against the extracellular side of the human CXCR4 receptor, SEQ ID NO:1, His6 tag (protein, listed as Lama glama)
VHH: QVQLQESGGGLVQPGGSLRLSCAASGSIFSINAMGWYRQAPGKQRELVAAITSGGSTNYADSVKGRFTISRDNAENTVYLQMNNLKPEDTAVYSCNAEGTSGSSRYRRRYEYWGKGTQVTVSSHHHHHH
modifications: His6 tag
As for B1, the Fluorescent units in assay [1] (setting [2]) was 39.95 fluorescent units. Also, the Blank corrected in assay [1] (setting [3]) was 36.61 fluorescent units.

B2: NbCA4500: Nanobody directed against the extracellular side of the human CXCR4 receptor, SEQ ID NO:4, His6 tag (protein, listed as Lama glama)
VHH: QVQLQESGGGLVQAGGSLRLSCAASGSTSGIIAMGWYRQAPGKQRELVARISSGSSTNYADSVKGRFTVSRDNAKNTVYLQMNSLKPEDTAVYYCNAVRRGYRNDYNSWGQGTQVTVSSHHHHHH
modifications: His6 tag
Take B2: the Fluorescent units in assay [1] (setting [2]) is given as 21.59 fluorescent units. The Blank corrected in assay [1] (setting [3]) turned out to be 18.25 fluorescent units. Besides, the “change of hCXCR4 receptor expression upon Nb co-expression (in words)” value (“change” below) in assay [1] was “slight increase”.

B3: NbCA2780: Nanobody that binds an intracellular epitope of the β2-adrenergic receptor and stabilizes its active conformation (Rasmussen et al., 2011), SEQ ID NO:5 (protein, listed as Lama glama)
VHH: MEVQLQESGGGLVQAGGSLRLSCAASGSIFSINTMGWYRQAPGKQRELVAAIHSGGSTNYANSVKGRFTISRDNAANTVYLQMNSLKPEDTAVYYCNVKDYGAVLYEYDYWGQGTQVTVSSAAAHHHHHH
On to B3, for which the “interaction between receptor and Nanobody (complex purified by Ni2+ affinity chromatography)” value in the assay with β2-adrenergic receptor is given as “strong interaction”.

B4: NbCA4910: negative control Nanobody which does not recognize the hCXCR4, SEQ ID NO:6 (protein, listed as Lama glama)
VHH: QVQLVESGGGLVQPGGSLRLSCAASGSFRSIVSMAWYRQAPGKQRELVASSNSGGSTNYADSVKGRFTISRDNAKNTVYLQMNSLKPEDTAVYWCNVQNRLPGFDAFSGRSIAETYWGQGTQVTVSSAAAHHHHHH
On to B4, for which the Blank corrected in assay [1] (setting [4]) is listed as 6.56 fluorescent units; in assay [1] (setting [5]) it was 17.89 fluorescent units; in assay [1] (setting [6]) it was 19.49 fluorescent units. Further, the Fluorescent units in assay [1] (setting [4]) is 8.97 fluorescent units; in assay [1] (setting [5]), 20.30 fluorescent units; in assay [1] (setting [6]) it was 21.90 fluorescent units. Further, the “change” value in assay [1] is “no increase in the receptor expression”.

B5: NbCA4142: Nanobody directed against the extracellular side of the human CXCR4 receptor, SEQ ID NO:2, His6 tag (protein, listed as Lama glama)
VHH: QVQLQESGGGLVRTGGSLRLSCAGSGSFFSINPMGWYRQAPGQQRELVATITGSGSTNYADSVKGRFTISRDNAKNTLYLQMNSLKPEDTAVYYCNAGYFDRIGRRYDRWGQGTQVTVSSHHHHHH
modifications: His6 tag
In the case of B5, the Fluorescent units in assay [1] (setting [2]) came to 35.81 fluorescent units; in assay [1] (Table 4, control experiment), 32.76 fluorescent units. In addition, the Blank corrected in assay [1] (setting [3]) worked out at 32.47 fluorescent units; in assay [1] (Table 4, control experiment, corrected for GS115 negative control), 30.35 fluorescent units. Also, in assay [1], the “change” value was “more”. Also, the “retention of the receptor on Ni2+ affinity column via hexaHis-tagged Nanobody” value with hCXCR4 receptor is listed as “strong retention of the receptor”.

B6: NbCA4143: Nanobody directed against the extracellular side of the human CXCR4 receptor, SEQ ID NO:3, His6 tag (protein, listed as Lama glama)
VHH: QVQLQESGGGLVQPGGSLRLSCAASGFTFSSYAMSWVRQAPGKGLEWVSTINSGGRSANYADSVKGRLTISRDNAKNTLHLQMNSLKPEDTALYYCARPRSVSRNYVPLGYDYLGQGTQVTVSSHHHHHH
modifications: His6 tag
Consider B6, for which the Fluorescent units in assay [1] (setting [2]) came out at 41.06 fluorescent units. In addition, the Blank corrected in assay [1] (setting [3]) stood at 37.72 fluorescent units.
